# B1: TRIM63 (parent)
# chain: QEKKLSFIEALIQQYQEQLDKSTK
# Variants of: B1
# Assay: protein stability index of a GFP-peptide fusion (GPS, HEK-293T) (PSI 1-6); higher = more stable
# Conditions: c terminus: a fixed tail appended
# 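Note: lentivirally expressed fusions sorted by FACS into six bins by GFP to DsRed ratio, PSI derived from sequencing read proportions per bin multiplied by bin number.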
row,Variant,protein stability index
1,QEKKRSFIEALIQQYQEQLDKSTK,3.05
2,QEKKPSFIEALIQQYQEQLDKSTK,3.58
3,QEKKESFIEALIQQYQEQLDKSTK,3.51
4,QEKKQSFIEALIQQYQEQLDKSTK,3.34
5,QEKKGSFIEALIQQYQEQLDKSTK,3.91
6,QEKKTSFIEALIQQYQEQLDKSTK,2.69
7,QEKKVSFIEALIQQYQEQLDKSTK,2.57
8,QEKKMSFIEALIQQYQEQLDKSTK,2.38
9,QEKKHSFIEALIQQYQEQLDKSTK,2.9
10,QEKKFSFIEALIQQYQEQLDKSTK,2.91
11,QEKKKSFIEALIQQYQEQLDKSTK,3.11
12,QEKKDSFIEALIQQYQEQLDKSTK,3.93
13,QEKKCSFIEALIQQYQEQLDKSTK,2.69
14,QEKKASFIEALIQQYQEQLDKSTK,4.08
15,QEKKISFIEALIQQYQEQLDKSTK,2.76
16,QEKKSSFIEALIQQYQEQLDKSTK,3.95
17,QEKKYSFIEALIQQYQEQLDKSTK,2.08
18,QEKKWSFIEALIQQYQEQLDKSTK,2.12
19,QEKKNSFIEALIQQYQEQLDKSTK,4.19
20,QHKKLSFIEALIQQYQEQLDKSTK,2.58
21,QLKKLSFIEALIQQYQEQLDKSTK,2.73
22,QYKKLSFIEALIQQYQEQLDKSTK,2.75
23,QNKKLSFIEALIQQYQEQLDKSTK,1.9
24,QRKKLSFIEALIQQYQEQLDKSTK,2.93

row,Variant,protein stability index
1,QMKKLSFIEALIQQYQEQLDKSTK,1.92
2,QQKKLSFIEALIQQYQEQLDKSTK,2.25
3,QVKKLSFIEALIQQYQEQLDKSTK,1.74
4,QWKKLSFIEALIQQYQEQLDKSTK,2
5,QIKKLSFIEALIQQYQEQLDKSTK,1.92
6,QTKKLSFIEALIQQYQEQLDKSTK,2
7,QSKKLSFIEALIQQYQEQLDKSTK,1.87
8,QKKKLSFIEALIQQYQEQLDKSTK,1.81
9,QPKKLSFIEALIQQYQEQLDKSTK,2.93
10,QEKKLSFIEALFQQYQEQLDKSTK,3.18
11,QEKKLSFIEALKQQYQEQLDKSTK,3.7
12,QEKKLSFIEALCQQYQEQLDKSTK,3.87
13,QEKKLSFIEALGQQYQEQLDKSTK,3.98
14,QEKKLSFIEALDQQYQEQLDKSTK,5.25
15,QEKKLSFIEALLQQYQEQLDKSTK,3.51
16,QEKKLSFIEALEQQYQEQLDKSTK,4.39
17,QEKKLSFIEALAQQYQEQLDKSTK,3.8
18,QEKKLSWIEALIQQYQEQLDKSTK,4.19
19,QEKKLSHIEALIQQYQEQLDKSTK,4.2
20,QEKKLSIIEALIQQYQEQLDKSTK,2.58
21,QEKKLSTIEALIQQYQEQLDKSTK,3.98
22,QEKKLSCIEALIQQYQEQLDKSTK,3.23
23,QEKKLSEIEALIQQYQEQLDKSTK,4.38
24,QEKKLSVIEALIQQYQEQLDKSTK,3.45

row,Variant,protein stability index
1,QEKKLSMIEALIQQYQEQLDKSTK,3.33
2,QEKKLSSIEALIQQYQEQLDKSTK,4.28
3,QEKKLSNIEALIQQYQEQLDKSTK,4.97
4,QEKKLSGIEALIQQYQEQLDKSTK,4.64
5,QEKKLSYIEALIQQYQEQLDKSTK,2.48
6,QEKKLSAIEALIQQYQEQLDKSTK,4.05
7,QEKKLSLIEALIQQYQEQLDKSTK,3.06
8,QEKKLSRIEALIQQYQEQLDKSTK,3.92
9,QEKKLSPIEALIQQYQEQLDKSTK,4.36
10,QEKKLSDIEALIQQYQEQLDKSTK,4.53
11,QEKKLSQIEALIQQYQEQLDKSTK,4.05
12,QEKKLHFIEALIQQYQEQLDKSTK,2.39
13,QEKKLKFIEALIQQYQEQLDKSTK,2.62
14,QEKKLQFIEALIQQYQEQLDKSTK,2.43
15,QEKKLYFIEALIQQYQEQLDKSTK,2.09
16,QEKKLEFIEALIQQYQEQLDKSTK,2.86
17,QEKKLNFIEALIQQYQEQLDKSTK,2.59
18,QEKKLTFIEALIQQYQEQLDKSTK,2.54
19,QEKKLGFIEALIQQYQEQLDKSTK,2.8
20,QEKKLIFIEALIQQYQEQLDKSTK,1.74
21,QEKKLCFIEALIQQYQEQLDKSTK,2.74
22,QEKKLPFIEALIQQYQEQLDKSTK,3.17
23,QEKKLMFIEALIQQYQEQLDKSTK,2.03
24,QEKKLAFIEALIQQYQEQLDKSTK,2.16

row,Variant,protein stability index
1,QEKKLRFIEALIQQYQEQLDKSTK,3.16
2,QEKKLWFIEALIQQYQEQLDKSTK,1.46
3,QEKKLDFIEALIQQYQEQLDKSTK,3.02
4,QEKKLLFIEALIQQYQEQLDKSTK,2.2
5,QEKKLFFIEALIQQYQEQLDKSTK,2.32
6,QEKKLVFIEALIQQYQEQLDKSTK,2.42
7,QEKKLSFIETLIQQYQEQLDKSTK,2.72
8,QEKKLSFIEQLIQQYQEQLDKSTK,2.89
9,QEKKLSFIEYLIQQYQEQLDKSTK,2.06
10,QEKKLSFIEWLIQQYQEQLDKSTK,1.63
11,QEKKLSFIEILIQQYQEQLDKSTK,2.54
12,QEKKLSFIESLIQQYQEQLDKSTK,2.89
13,QEKKLSFIEKLIQQYQEQLDKSTK,2.39
14,QEKKLSFIEPLIQQYQEQLDKSTK,3.98
15,QEKKLSFIEFLIQQYQEQLDKSTK,2.28
16,QEKKLSFIEELIQQYQEQLDKSTK,3.42
17,QEKKLSFIEHLIQQYQEQLDKSTK,2.75
18,QEKKLSFIEVLIQQYQEQLDKSTK,2.38
19,QEKKLSFIELLIQQYQEQLDKSTK,2.37
20,QEKKLSFIEDLIQQYQEQLDKSTK,3.47
21,QEKKLSFIENLIQQYQEQLDKSTK,2.73
22,QEKKLSFIECLIQQYQEQLDKSTK,2.14
23,QEKKLSFIEMLIQQYQEQLDKSTK,1.96
24,QEKKLSFIEGLIQQYQEQLDKSTK,3.33

row,Variant,protein stability index
1,QEKKLSFIERLIQQYQEQLDKSTK,2.53
2,QEKKLSFREALIQQYQEQLDKSTK,4.08
3,QEKKLSFAEALIQQYQEQLDKSTK,3.83
4,QEKKLSFCEALIQQYQEQLDKSTK,4.38
5,QEKKLSFFEALIQQYQEQLDKSTK,2.78
6,QEKKLSFKEALIQQYQEQLDKSTK,4.17
7,QEKKLSFNEALIQQYQEQLDKSTK,5.18
8,QEKKLSFWEALIQQYQEQLDKSTK,3.56
9,QEKKLSFDEALIQQYQEQLDKSTK,4.44
10,QEKKLSFEEALIQQYQEQLDKSTK,4.76
11,QEKKLSFTEALIQQYQEQLDKSTK,2.64
12,QEKKLSFMEALIQQYQEQLDKSTK,3.96
13,QEKKLSFLEALIQQYQEQLDKSTK,2.14
14,QEKKLSFHEALIQQYQEQLDKSTK,4.92
15,QEKKLSFYEALIQQYQEQLDKSTK,3.63
16,QEKKLSFGEALIQQYQEQLDKSTK,5.05
17,QEKKLSFVEALIQQYQEQLDKSTK,1.28
18,QEKKLSFPEALIQQYQEQLDKSTK,4.89
19,QEKKLSFQEALIQQYQEQLDKSTK,4.32
20,QEKKLSFIEAMIQQYQEQLDKSTK,3.09
21,QEKKLSFIEAQIQQYQEQLDKSTK,4.81
22,QEKKLSFIEARIQQYQEQLDKSTK,4.58
23,QEKKLSFIEAAIQQYQEQLDKSTK,3.71
24,QEKKLSFIEAIIQQYQEQLDKSTK,2.02

row,Variant,protein stability index
1,QEKKLSFIEANIQQYQEQLDKSTK,4.78
2,QEKKLSFIEAYIQQYQEQLDKSTK,3.31
3,QEKKLSFIEASIQQYQEQLDKSTK,5.13
4,QEKKLSFIEATIQQYQEQLDKSTK,3.96
5,QEKKLSFIEAFIQQYQEQLDKSTK,2.79
6,QEKKLSFIEAPIQQYQEQLDKSTK,5.29
7,QEKKLSFIEACIQQYQEQLDKSTK,4.29
8,QEKKLSFIEAGIQQYQEQLDKSTK,4.46
9,QEKKLSFIEAHIQQYQEQLDKSTK,4.63
10,QEKKLSFIEAVIQQYQEQLDKSTK,2.65
11,QEKKLSFIEADIQQYQEQLDKSTK,5.13
12,QEKKLSFIEAKIQQYQEQLDKSTK,4.45
13,QEKKLSFIEAEIQQYQEQLDKSTK,4.73
14,QEKKLSFIEAWIQQYQEQLDKSTK,3.43
15,QEKKLSFIPALIQQYQEQLDKSTK,3.96
16,QEKKLSFISALIQQYQEQLDKSTK,2.68
17,QEKKLSFIVALIQQYQEQLDKSTK,1.7
18,QEKKLSFIIALIQQYQEQLDKSTK,2.06
19,QEKKLSFICALIQQYQEQLDKSTK,2.05
20,QEKKLSFIMALIQQYQEQLDKSTK,2.22
21,QEKKLSFIQALIQQYQEQLDKSTK,2.76
22,QEKKLSFIRALIQQYQEQLDKSTK,2.82
23,QEKKLSFIFALIQQYQEQLDKSTK,1.8
24,QEKKLSFIWALIQQYQEQLDKSTK,1.6

row,Variant,protein stability index
1,QEKKLSFITALIQQYQEQLDKSTK,1.79
2,QEKKLSFILALIQQYQEQLDKSTK,1.39
3,QEKKLSFIKALIQQYQEQLDKSTK,3.62
4,QEKKLSFIHALIQQYQEQLDKSTK,2.33
5,QEKKLSFIYALIQQYQEQLDKSTK,1.57
6,QEKKLSFINALIQQYQEQLDKSTK,2.64
7,QEKKLSFIAALIQQYQEQLDKSTK,1.93
8,QEFKLSFIEALIQQYQEQLDKSTK,2.43
9,QESKLSFIEALIQQYQEQLDKSTK,3.6
10,QEHKLSFIEALIQQYQEQLDKSTK,2.32
11,QEYKLSFIEALIQQYQEQLDKSTK,2.88
12,QEWKLSFIEALIQQYQEQLDKSTK,1.57
13,QEQKLSFIEALIQQYQEQLDKSTK,2.85
14,QEIKLSFIEALIQQYQEQLDKSTK,2.01
15,QENKLSFIEALIQQYQEQLDKSTK,3.11
16,QEPKLSFIEALIQQYQEQLDKSTK,2.67
17,QEAKLSFIEALIQQYQEQLDKSTK,2.67
18,QETKLSFIEALIQQYQEQLDKSTK,3.04
19,QERKLSFIEALIQQYQEQLDKSTK,2.84
20,QECKLSFIEALIQQYQEQLDKSTK,3.24
21,QELKLSFIEALIQQYQEQLDKSTK,2.15
22,QEDKLSFIEALIQQYQEQLDKSTK,3.27
23,QEEKLSFIEALIQQYQEQLDKSTK,3.04
24,QEVKLSFIEALIQQYQEQLDKSTK,2.32

row,Variant,protein stability index
1,QEGKLSFIEALIQQYQEQLDKSTK,3.03
2,QEKNLSFIEALIQQYQEQLDKSTK,3.32
3,QEKRLSFIEALIQQYQEQLDKSTK,2.77
4,QEKTLSFIEALIQQYQEQLDKSTK,2.49
5,QEKMLSFIEALIQQYQEQLDKSTK,1.68
6,QEKFLSFIEALIQQYQEQLDKSTK,2.18
7,QEKILSFIEALIQQYQEQLDKSTK,1.96
8,QEKVLSFIEALIQQYQEQLDKSTK,2.02
9,QEKYLSFIEALIQQYQEQLDKSTK,2.53
10,QEKHLSFIEALIQQYQEQLDKSTK,3.22
11,QEKDLSFIEALIQQYQEQLDKSTK,3.48
12,QEKSLSFIEALIQQYQEQLDKSTK,2.83
13,QEKPLSFIEALIQQYQEQLDKSTK,3.07
14,QEKGLSFIEALIQQYQEQLDKSTK,3.03
15,QEKELSFIEALIQQYQEQLDKSTK,2.73
16,QEKALSFIEALIQQYQEQLDKSTK,1.87
17,QEKQLSFIEALIQQYQEQLDKSTK,3.4
18,QEKWLSFIEALIQQYQEQLDKSTK,1.85
19,QEKLLSFIEALIQQYQEQLDKSTK,2
20,QEKCLSFIEALIQQYQEQLDKSTK,1.9

# Reference: the supplement of paper PMC10567573
